Test results: patent US20050026839A1 (GENERAL HOSPITAL, published 2005)
Like-named read-outs stand apart in the source and are kept apart here. Square brackets hold non-standard residues; d marks the D form. Ends that are not written are not given here. hArg = N=C(N)NCCCC[C@H](N)C(=O)O; Aib = CC(C)(N)C(=O)O

B1: [Aib^13,M]PTH(1-14) (peptide)
peptide: AVAEIQLMHQ[hArg]A[Aib]W-NH2
modifications: N-terminus assumed
SMILES: CC[C@H](C)[C@H](NC(=O)[C@H](CCC(=O)O)NC(=O)[C@H](C)NC(=O)[C@@H](NC(=O)[C@H](C)N)C(C)C)C(=O)N[C@@H](CCC(N)=O)C(=O)N[C@@H](CC(C)C)C(=O)N[C@@H](CCSC)C(=O)N[C@@H](Cc1c[nH]cn1)C(=O)N[C@@H](CCC(N)=O)C(=O)N[C@@H](CCCCNC(=N)N)C(=O)N[C@@H](C)C(=O)NC(C)(C)C(=O)N[C@@H](Cc1c[nH]c2ccccc12)C(N)=O
notes: Aib scan of [M]PTH(1-14); also called 634 Aib-13
B2: [Aib^14,M]PTH(1-14) (peptide)
peptide: AVAEIQLMHQ[hArg]AK[Aib]-NH2
modifications: N-terminus assumed
SMILES: CC[C@H](C)[C@H](NC(=O)[C@H](CCC(=O)O)NC(=O)[C@H](C)NC(=O)[C@@H](NC(=O)[C@H](C)N)C(C)C)C(=O)N[C@@H](CCC(N)=O)C(=O)N[C@@H](CC(C)C)C(=O)N[C@@H](CCSC)C(=O)N[C@@H](Cc1c[nH]cn1)C(=O)N[C@@H](CCC(N)=O)C(=O)N[C@@H](CCCCNC(=N)N)C(=O)N[C@@H](C)C(=O)N[C@@H](CCCCN)C(=O)NC(C)(C)C(N)=O
notes: Aib scan of [M]PTH(1-14); Aib replaces the Trp^14 of [M]; also called 635 Aib-14
B3: [Aib^12,M]PTH(1-14) (peptide)
peptide: AVAEIQLMHQ[hArg][Aib]KW-NH2
modifications: N-terminus assumed
SMILES: CC[C@H](C)[C@H](NC(=O)[C@H](CCC(=O)O)NC(=O)[C@H](C)NC(=O)[C@@H](NC(=O)[C@H](C)N)C(C)C)C(=O)N[C@@H](CCC(N)=O)C(=O)N[C@@H](CC(C)C)C(=O)N[C@@H](CCSC)C(=O)N[C@@H](Cc1c[nH]cn1)C(=O)N[C@@H](CCC(N)=O)C(=O)N[C@@H](CCCCNC(=N)N)C(=O)NC(C)(C)C(=O)N[C@@H](CCCCN)C(=O)N[C@@H](Cc1c[nH]c2ccccc12)C(N)=O
notes: Aib scan of [M]PTH(1-14); Aib replaces the Ala^12 of [M]; also called 633 Aib-12
B4: [Aib^1,3,M]PTH(1-11) (peptide)
peptide: [Aib]V[Aib]EIQLMHQ[hArg]-NH2
modifications: N-terminus assumed
SMILES: CC[C@H](C)[C@H](NC(=O)[C@H](CCC(=O)O)NC(=O)C(C)(C)NC(=O)[C@@H](NC(=O)C(C)(C)N)C(C)C)C(=O)N[C@@H](CCC(N)=O)C(=O)N[C@@H](CC(C)C)C(=O)N[C@@H](CCSC)C(=O)N[C@@H](Cc1c[nH]cn1)C(=O)N[C@@H](CCC(N)=O)C(=O)N[C@@H](CCCCNC(=N)N)C(N)=O
notes: also called 682 [Aib^1,3, M]PTH (1-11); [Aib^1,3,Gln^10,Har^11]PTH(1-11)
B5: [Aib^3,M]PTH(1-14) (peptide)
peptide: AV[Aib]EIQLMHQ[hArg]AKW-NH2
modifications: N-terminus assumed
SMILES: CC[C@H](C)[C@H](NC(=O)[C@H](CCC(=O)O)NC(=O)C(C)(C)NC(=O)[C@@H](NC(=O)[C@H](C)N)C(C)C)C(=O)N[C@@H](CCC(N)=O)C(=O)N[C@@H](CC(C)C)C(=O)N[C@@H](CCSC)C(=O)N[C@@H](Cc1c[nH]cn1)C(=O)N[C@@H](CCC(N)=O)C(=O)N[C@@H](CCCCNC(=N)N)C(=O)N[C@@H](C)C(=O)N[C@@H](CCCCN)C(=O)N[C@@H](Cc1c[nH]c2ccccc12)C(N)=O
notes: also called 624 Aib-3
B6: [Aib^1,M]PTH(1-14) (peptide)
peptide: [Aib]VAEIQLMHQ[hArg]AKW-NH2
modifications: N-terminus assumed
SMILES: CC[C@H](C)[C@H](NC(=O)[C@H](CCC(=O)O)NC(=O)[C@H](C)NC(=O)[C@@H](NC(=O)C(C)(C)N)C(C)C)C(=O)N[C@@H](CCC(N)=O)C(=O)N[C@@H](CC(C)C)C(=O)N[C@@H](CCSC)C(=O)N[C@@H](Cc1c[nH]cn1)C(=O)N[C@@H](CCC(N)=O)C(=O)N[C@@H](CCCCNC(=N)N)C(=O)N[C@@H](C)C(=O)N[C@@H](CCCCN)C(=O)N[C@@H](Cc1c[nH]c2ccccc12)C(N)=O
notes: also called 622 Aib-1

Key:
[1] = target: wild-type human PTH/PTHrP receptor (hP1R-WT) (human) (UniProt Q03431); assay: cell-based or functional assay
[2] = target: T1, wild-type human PTH/PTHrP receptor (hP1R-WT) (human, UniProt Q03431 27-593); assay: cell-based or functional assay
T1 sequence (looked up): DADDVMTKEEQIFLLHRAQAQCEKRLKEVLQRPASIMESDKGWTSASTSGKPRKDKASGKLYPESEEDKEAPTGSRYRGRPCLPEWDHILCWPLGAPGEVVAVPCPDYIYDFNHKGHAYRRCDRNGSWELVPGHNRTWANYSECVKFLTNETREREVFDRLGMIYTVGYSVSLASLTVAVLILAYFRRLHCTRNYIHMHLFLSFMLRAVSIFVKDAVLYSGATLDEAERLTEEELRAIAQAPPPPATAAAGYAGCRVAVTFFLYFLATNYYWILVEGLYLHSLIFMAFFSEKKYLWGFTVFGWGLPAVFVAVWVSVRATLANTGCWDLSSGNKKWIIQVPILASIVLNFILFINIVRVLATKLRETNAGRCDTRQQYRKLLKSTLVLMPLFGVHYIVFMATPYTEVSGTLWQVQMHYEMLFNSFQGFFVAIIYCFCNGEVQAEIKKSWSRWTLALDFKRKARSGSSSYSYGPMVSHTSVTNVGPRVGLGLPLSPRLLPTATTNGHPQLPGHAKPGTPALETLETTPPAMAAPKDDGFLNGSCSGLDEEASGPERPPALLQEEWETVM

[3] = target: T1, wild-type human PTH/PTHrP receptor …; assay: competition binding, 125I-[M]PTH(1-21) tracer, HKRK-B28 cells
Protocol: (§1) Cells were then placed on ice, the binding medium was removed, and the monolayer was rinsed three times with 0.5 mL of cold binding buffer. The cells were subsequently lysed with 0.5 mL […] NaOH and counted for radioactivity. For each tracer and in each experiment, the non-specific binding was determined as the radioactivity that bound in the presence of the same unlabeled peptide at a concentration of 1 μM, and was ˜1% of total radioactivity added for each tracer. The maximum specific binding (B₀) was the total radioactivity bound in the absence of competing ligand, corrected for nonspecific binding, and for each tracer, ranged from 8% to 20% of the total radioactivity added. Nonlinear regression was used to calculate binding IC₅₀ values (see below). Scatchard transformations of homologous competition binding data derived from studies with 26 fmol of ¹²⁵I-[Aib^{1,3},M]PTH(1-21) were employed for estimations of apparent equilibrium dissociation constant (kDapps) and total number of ligand binding sites (Bₘₐₓ), assuming a single class of binding sites and equal affinities of the iodinated and non iodinated ligand.
Relative to the apparent binding affinity of [M]PTH(1-14), most of the Aib substitutions reduced affinity, in accordance with the corresponding effects on cAMP-signaling potency (Table 1).

[4] = target: T1, wild-type human PTH/PTHrP receptor …; assay: competition binding, 125I-[M]PTH(1-21) tracer, HKRK-B28 cells, 4 h at 4 C
Protocol: as §1, with “Competition Binding. Binding reactions were performed with HKRK-B28 cells or in COS-7 cells in 24-well plates. The cells were rinsed with 0.5 mL of binding buffer, and then treated successively with 100 μL binding buffer, 100 μL of binding buffer containing various amounts of unlabeled competitor ligand, and 100 μL of binding buffer containing ca. 100,000 cpm of ¹²⁵I-[M]PTH(1-21) or ¹²⁵I-[Aib^{1,3},M]PTH(1-21)} (ca. 26 fmol; final volume=300 μL). Incubations were 4 to 6 h at 4° C., at which time near equilibrium conditions were attained. Cells” for “Cells”
Peptides PTH(1-34) ([Nle^{8,21}, Tyr³⁴]PTH(1-34)amide), [M]PTH(1-14) (M = Ala^{3,12}, Gln¹⁰, Har¹¹, Trp¹⁴), and [M]PTH(1-14 analogs, or C-terminally truncated derivatives thereof, containing α-aminoisobutyric acid (Aib) substitutions at the indicated positions were functionally evaluated in HKRK-B28 cells. “M” in [Aib^{1,3}, M]PTH(1-21) = Nle⁸, Gln¹⁰, Har¹¹, Ala¹², Trp¹⁴, Arg¹⁹ and Tyr²¹. The basal cAMP values (not subtracted) were 4.0 ± 0.1 pmole/well (n = 10). Peptides were based on the rat PTH sequence and were carboxy-amidated. Competition binding analyses were performed with ¹²⁵I-[M]PTH(1-21 )amide (Ala^{1,3}) as tracer for 4 h at 4° C. Data are means (±S.E.M.) Of the number of experiments indiated (n).

[5] = target: T1, wild-type human PTH/PTHrP receptor …; assay: cell-based or functional assay; remark: listed apart in the source
[6] = target: T2, truncated human P1R deleted for residues (24-181) (hP1R-delNt) (human, UniProt Q03431 182-593); assay: cell-based or functional assay
T2 sequence (looked up): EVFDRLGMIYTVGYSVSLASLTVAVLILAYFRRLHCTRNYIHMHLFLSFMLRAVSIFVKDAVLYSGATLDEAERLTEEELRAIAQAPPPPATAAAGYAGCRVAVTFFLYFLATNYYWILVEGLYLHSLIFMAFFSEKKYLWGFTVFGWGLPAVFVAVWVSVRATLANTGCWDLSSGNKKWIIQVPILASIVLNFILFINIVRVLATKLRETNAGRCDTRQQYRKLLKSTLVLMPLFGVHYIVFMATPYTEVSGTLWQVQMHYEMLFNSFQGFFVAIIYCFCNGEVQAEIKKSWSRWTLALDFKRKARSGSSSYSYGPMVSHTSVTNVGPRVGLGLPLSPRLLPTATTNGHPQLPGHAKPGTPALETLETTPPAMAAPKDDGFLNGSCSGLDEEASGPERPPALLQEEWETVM

[7] = target: T1, wild-type human PTH/PTHrP receptor …; assay: competition binding, 125I-[Aib1,3,M]PTH(1-21) tracer, COS-7 cells expressing hP1R-WT
Protocol: as §1, with “Competition Binding. Binding reactions were performed with HKRK-B28 cells or in COS-7 cells in 24-well plates. The cells were rinsed with 0.5 mL of binding buffer, and then treated successively with 100 μL binding buffer, 100 μL of binding buffer containing various amounts of unlabeled competitor ligand, and 100 μL of binding buffer containing ca. 100,000 cpm of ¹²⁵I-[M]PTH(1-21) or ¹²⁵I-[Aib^{1,3},M]PTH(1-21)} (ca. 26 fmol; final volume=300 μL). Incubations were 4 to 6 h at 4° C., at which time near equilibrium conditions were attained. Cells” for “Cells”

[8] = target: T2, truncated human P1R deleted for …; assay: competition binding, 125I-[Aib1,3,M]PTH(1-21) tracer, COS-7 cells expressing hP1R-delNt
Protocol: Stock solutions of EGTA/trypsin and antibiotics were from GIBCO; fetal bovine serum was from Hyclone Laboratories (Logan, Utah). […] All cells, in 24-well plates, were treated with fresh media and shifted to 33° C. for 12 to 24 h prior to assay.
as §1, with “Competition Binding. Binding reactions were performed with HKRK-B28 cells or in COS-7 cells in 24-well plates. The cells were rinsed with 0.5 mL of binding buffer, and then treated successively with 100 μL binding buffer, 100 μL of binding buffer containing various amounts of unlabeled competitor ligand, and 100 μL of binding buffer containing ca. 100,000 cpm of ¹²⁵I-[M]PTH(1-21) or ¹²⁵I-[Aib^{1,3},M]PTH(1-21)} (ca. 26 fmol; final volume=300 μL). Incubations were 4 to 6 h at 4° C., at which time near equilibrium conditions were attained. Cells” for “Cells”

[9] = target: T1, wild-type human PTH/PTHrP receptor …; assay: cell-based or functional assay; remark: listed apart in the source

Molecule	cAMP EC50 [2] [nM]	cAMP EMax(obs.) [2] [pmole/well]	fold reduction in affinity relative to [M]PTH(1-14) [3] [fold]	IC50 [4] [nM]	further results
[Aib^11,M]PTH(1-14) (peptide)	–	–	–	–	cAMP EC50 [1]: 67000 nM; cAMP EMax(obs.) [1]: 96 pmole/well
B1	480	259	< 10	44000	–
B2	350	273	< 10	79000	–
B3	440	263	< 10	15000	–
B4	4	243	–	970	cAMP EC50 [5]: 2.1 nM; cAMP EMax(obs.) [5]: 190 pmole/well; cAMP EC50 [6]: 2 nM; cAMP EMax(obs.) [6]: 220 pmole/well; IC50 [7]: 16000 nM; IC50 [8]: 13000 nM
B5	13	269	–	1700	cAMP EC50 in SaOS-2 cells [9]: 42 nM; cAMP EMAX(obs.) in SaOS-2 cells [9]: 330 pmole/well; fold improvement in affinity relative to [M]PTH(1-14) [3]: 8 fold
B6	10	273	–	980	cAMP EC50 in SaOS-2 cells [9]: 22 nM; cAMP EMAX(obs.) in SaOS-2 cells [9]: 340 pmole/well; fold improvement in affinity relative to [M]PTH(1-14) [3]: 13 fold
